Results from patent US20020102256A1 (ZymoGenetics, published 2002).
Several values for one entry are separate records, joined by “and”; a condition that tells them apart may be missing. Equal entries are not always repeated.

T1: Activated human C1s (Calbiochem-Novabiochem Corporation) (human, UniProt P09871 16-688)
T1 sequence (looked up): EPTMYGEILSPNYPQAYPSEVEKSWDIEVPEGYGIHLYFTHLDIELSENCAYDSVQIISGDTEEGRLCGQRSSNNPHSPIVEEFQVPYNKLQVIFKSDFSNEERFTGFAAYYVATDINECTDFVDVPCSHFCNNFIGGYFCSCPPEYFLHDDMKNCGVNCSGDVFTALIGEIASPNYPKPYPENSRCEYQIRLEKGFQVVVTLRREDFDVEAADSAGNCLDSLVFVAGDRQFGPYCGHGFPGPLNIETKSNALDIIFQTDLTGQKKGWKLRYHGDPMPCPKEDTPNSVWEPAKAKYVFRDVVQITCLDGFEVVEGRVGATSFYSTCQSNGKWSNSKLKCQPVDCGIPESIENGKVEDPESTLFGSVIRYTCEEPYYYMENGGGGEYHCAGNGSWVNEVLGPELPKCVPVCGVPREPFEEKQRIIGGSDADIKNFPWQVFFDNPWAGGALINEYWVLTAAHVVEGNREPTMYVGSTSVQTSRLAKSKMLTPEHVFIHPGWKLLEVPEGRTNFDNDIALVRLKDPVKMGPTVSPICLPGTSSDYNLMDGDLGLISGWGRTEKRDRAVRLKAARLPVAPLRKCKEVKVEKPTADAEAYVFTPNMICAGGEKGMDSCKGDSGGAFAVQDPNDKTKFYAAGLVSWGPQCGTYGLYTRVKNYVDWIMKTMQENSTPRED

T2: Activated human C1s (Calbiochem-Novabiochem Corporation) (human) (UniProt P09871)
T2 sequence (looked up): T1 sequence (looked up)

B1: Deglycosylated and cleaved recombinant BD001 (other)
chain 1: AKKKLPKCQKQEDCGSWDLKCNNVTKKCECRNQVCGRGCPKERYQRDKYGCRKCLCKGCDGFKCR
chain 2: LGCTYGFKTDKKGCEAFCTCNTKETACVNIWCTDPYKCNPESGRCEDPNEEYEYDYE
modifications: sulfation of at least one of Tyr117, Tyr119 and Tyr121; glycan at Asn23 removed with PNGase F
B2: Cleaved recombinant BD001 (other)
chain 1: B1 chain 1
chain 2: B1 chain 2
modifications: sulfation of at least one of Tyr117, Tyr119 and Tyr121; glycosylation at Asn23 (fucosylated complex-type core)
B3: Desulfated and cleaved recombinant BD001 (other)
chain 1: B1 chain 1
chain 2: B1 chain 2
modifications: sulfate groups removed from Tyr117/Tyr119/Tyr121 with aryl sulfatase; glycosylation at Asn23 (fucosylated complex-type core)
B4: Recombinant BD001 expressed in Baculovirus (protein)
chain: AKKKLPKCQKQEDCGSWDLKCNNVTKKCECRNQVCGRGCPKERYQRDKYGCRKCLCKGCDGFKCRLGCTYGFKTDKKGCEAFCTCNTKETACVNIWCTDPYKCNPESGRCEDPNEEYEYDYE
modifications: glycosylation at Asn23 (fucosylated complex-type core); sulfation of at least one of Tyr117, Tyr119 and Tyr121 (tyrosine sulfation at the C-terminus on three tyrosine residues)
B5: BD001 protein isolated from Pichia methanolica (protein)
chain: B4 chain
modifications: lacks tyrosine sulfation at the C-terminus and N-glycosylation
B6: BD001 isolated from tissue (protein)
chain: B4 chain
modifications: glycosylation at Asn23 (fucosylated complex-type core); sulfation of at least one of Tyr117, Tyr119 and Tyr121
B7: Desulfated recombinant BD001 (protein)
chain: B4 chain
modifications: sulfate groups removed from Tyr117/Tyr119/Tyr121 with aryl sulfatase; glycosylation at Asn23
B8: Deglycosylated recombinant BD001 (protein)
chain: B4 chain
modifications: glycan at Asn23 removed with PNGase F; sulfation of at least one of Tyr117, Tyr119 and Tyr121

Columns and labels:
Assay in all cases: cell-based or functional assay
[1] = target: T1, Activated human C1s …
[2] = target: T1, Activated human C1s …; remark: listed apart in the source
[3] = target: T2, Activated human C1s (Calbiochem-Novabiochem Corporation) (human)

Binder | IC50 (nM), C1s enzyme assay [1] [nM] | IC50 (nM), C1s enzyme assay [3] | further results
B1 | 21.9 | – | –
B2 | 19.8 | – | fold higher IC50 than the matched, intact form, C1s enzyme assay [2]: ~10 fold
B3 | 558 | – | –
B4 | – | 2.5 nM | IC50, C1s enzyme assay (decrease in Vmax of Pefa-C1E cleavage) [3]: 0.0052 µM
B5 | – | – | IC50, C1s enzyme assay (decrease in Vmax of Pefa-C1E cleavage) [3]: 0.044 µM; fold decrease in activity in bioassays compared with the baculovirus-expressed material [3]: 10 fold; fold less active than the baculovirus material, C1s enzyme assay [3]: 8 fold
B6 | – | 4 nM and 4.7 nM | –
B7 | – | 36 nM | –
B8 | – | 2.86 nM | –
